Laboratory results as given in patent publication US20230405078A1, “DETECTION AND TREATMENT OF INTESTINAL FIBROSIS” (THE REGENTS OF THE UNIVERSITY OF CALIFORNIA, priority 2020, published 2023).

How the values were obtained:
[1] = test system: Human colonic CCD-18Co fibroblasts; experiment: TGF-β1-induced fibrogenesis in CCD-18Co fibroblasts; format: cell-based; conditions: TGF-β1-treated CCD-18Co fibroblasts; elafin 1 μg/ml
Method: Cleveland Clinic IRB directives (IRB #17-1167). Primary non-IBD patient-derived colonic fibroblasts (H6231) were purchased from Cell Biologics. All primary colonic fibroblasts were cultured in fibroblast medium (M2267, Cell Biologics). Human colonic CCD-18Co fibroblasts (ATCC) were cultured in minimal essential medium Eagle's medium (MEM) containing 10% fetal bovine serum and 1% penicillin-streptomycin 6, 20. All fibroblasts were grown to 80% confluence and then switched to serum-free media overnight for experiments.
For activation of protease-activated receptors (PARs), fibroblasts were pretreated with 0.8% DMSO, 10 μM PAR1 agonist TRAP-6 (HY-P0078, MCE), 10 μM PAR2 agonist SLIGKV-NH2 (Protease-Activated Receptor-2, amide, HY-P0283, MCE), or 0.4 μg/ml PAR2-activating protease recombinant cathepsin S (1183-CY-010, R&D Systems) for 30 minutes. For miR205-5p activation, fibroblasts were transfected with (30 picomoles/well) either control (YM00479902) or miR205-5p miRCURY LNA mimic (YM00472340) from Qiagen via Lipofectamine 3000 transfection reagent (L3000001, ThermoFisher) in Opti-MEM (#31985062, ThermoFisher) overnight. For miR205-5p inhibition, fibroblasts were pretreated with 50nM either control (Y100199006) or miR205-5p power inhibitors (Y104101508-DDA) from Qiagen overnight. […]

ERK1/2 phosphorylation = experiment: Phospho-ERK1/2 ELISA in CCD-18Co fibroblasts; format: cell-based, human; conditions: elafin 1 μg/ml, 2 hours
Method: FIG. 27. Elafin inhibited ERK1/2 phosphorylation in intestinal fibroblasts via PAR2. (A) Serum starved CCD-18Co and primary stricturing CD patient-derived colonic fibroblasts were transiently transfected with either control siRNA or ZEB1 siRNA overnight, followed by treatment with 10 ng/ml TGF-β1 or 100 μg/ml stricturing CD patient-derived serum exosomes (CDSE) for 24 hours. (B) CCD-18Co fibroblasts were treated with DMSO, PAR1 inhibitor (SCH79797), or PAR2 inhibitor (GB88) for 2 hours. GB88 inhibited ERK1/2 phosphorylation. (C) CCD-18Co fibroblasts were pretreated with DMSO, PAR1 agonist, or PAR2 agonists for 30 minutes, followed by TGF-β1 10 ng/ml. Two hours later, elafin (1 μg/ml) and incubated for 2 hours. Elafin inhibited ERK1/2 phosphorylation, which was reversed by PAR2 agonist. […] Phospho-ERK1/2, ProCOL1A1, COL1A2, and ZEB1 protein were determined by ELISA. miR205-5p expression was determined by real-time RT-PCR. […]
FIG. 28. […] (D) Quantification of cathepsin S signals (B7-8) and control signals (A1-2 and E1-2) on the protease array using Bio-Rad Image Lab Software. […] Phospho-ERK1/2 was determined by ELISA. […] ProCOL1A1 and COL1A2 were determined by ELISA. […]

B1: Cathepsin S: PAR2-activating protease recombinant cathepsin S (protein)
chain: QLHKDPTLDHHWHLWKKTYGKQYKEKNEEAVRRLIWEKNLKFVMLHNLEHSMGMHSYDLGMNHLGDMTSEEVMSLMSSLRVPSQWQRNITYKSNPNRILPDSVDWREKGCVTEVKYQGSCGACWAFSAVGALEAQLKLKTGKLVSLSAQNLVDCSTEKYGNKGCNGGFMTTAFQYIIDNKGIDSDASYPYKAMDQKCQYDSKYRAATCSKYTELPYGREDVLKEAVANKGPVSVGVDARHPSFFLYRSGVYYEPSCTQNVNHGVLVVGYGDLNGKEYWLVKNSWGHNFGEEGYIRMARNKGNHCGIASFPSYPEI
effect on elafin-mediated inhibition of collagen expression [1]: reversed
effect on elafin-mediated inhibition of ERK1/2 phosphorylation (ERK1/2 phosphorylation): reversed
